According to PMC4105859, “Characterization of the SAM domain of the PKD-related protein ANKS6 and its interaction with ANKS3” (BMC Structural Biology, 2014):
Numbering of substitutions follows the chain as printed. In names and notes the source's numbering stands.

T1: ANKS6-SAM wt (human, UniProt Q68DC2 771-840)
T1 chain: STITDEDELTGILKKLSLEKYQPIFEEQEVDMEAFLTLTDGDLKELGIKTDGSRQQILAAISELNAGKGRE

T2: ANKS3-SAM F53E
T2 chain: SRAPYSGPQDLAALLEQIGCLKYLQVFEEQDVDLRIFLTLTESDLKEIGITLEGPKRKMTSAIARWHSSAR

B1: negGFP-ANKS3-SAM fusion protein (domain or fragment, human, UniProt Q6ZW76 421-490, looked up)
chain: RAPYSGPQDLAALLEQIGCLKYLQVFEEQDVDLRIFLTLTESDLKEIGITLFGPKRKMTSAIARWHSSAR
notes: ANKS3 (ankyrin repeat and SAM-domain containing protein 3), human, SAM domain, residues 421-490 of UniProt Q6ZW76; source: ARI814 cells, in lysate (native gel); purified (Ni-NTA, HiTrap Q) for TEM
B2: His6-tagged ANKS3-SAM (domain or fragment, human, UniProt Q6ZW76 421-490, looked up)
chain: B1 chain
notes: ANKS3, human, SAM domain, residues 421-490 of UniProt Q6ZW76; pET28 vector; also called ANKS3-SAM (negGFP removed); ANKS3-SAM precipitate; source: Rosetta(DE3) cells, purified (Ni-NTA); precipitated after purification
B3: ANKS3-SAM I36E (domain or fragment)
chain: T2 chain with I36E, E53F
B4: His6-tagged ANKS6-SAM (domain or fragment, human, UniProt Q68DC2 771-840, looked up)
chain: TITDEDELTGILKKLSLEKYQPIFEEQEVDMEAFLTLTDGDLKELGIKTDGSRQQILAAISELNAGKGRE
notes: ANKS6, human, SAM domain, residues 771-840 of UniProt Q68DC2; pBAD-HisA vector; source: ARI814 cells, purified (HiTrap IMAC, HiTrap Q)

What was measured:
[1] = molecular target: the molecule itself; experiment: negative stain transmission electron microscopy; purified protein or its precipitate on carbon/formvar grids, 1% uranyl acetate, 120 kV
ANKS6-SAM wt [2] = molecular target: T1, ANKS6-SAM wt; experiment: SPR; value printed in panel; legend gives 249 nM
ANKS3-SAM F53E = molecular target: T2, ANKS3-SAM F53E; experiment: SPR; details: chain shown with the change, read off a plot
ANKS3-SAM F53E (human) = experiment: SPR; ANKS3-SAM F53E immobilised on CM5 (EDC/NHS), ANKS3-SAM I36E flowed over; Biacore T100, 21°C, 20 mM HEPES pH 7.5, 1 mM DTT, 0.04% IGEPAL CA-630, 0.15 M NaCl; equilibrium, 1:1 steady-state model, triplicate; Kd called an approximation since saturation was not reached
ANKS6-SAM wt [3] = molecular target: T1, ANKS6-SAM wt; experiment: SPR; ANKS6-SAM wt immobilised on CM5 (EDC/NHS), ANKS3-SAM I36E flowed over; Biacore T100, 21°C, 20 mM HEPES pH 7.5, 1 mM DTT, 0.04% IGEPAL CA-630, 0.15 M NaCl; equilibrium, 1:1 steady-state model, triplicate
His6-tagged ANKS3-SAM = molecular target: B2; experiment: resolubilisation of a precipitate; His6-ANKS3-SAM precipitate (3.2 mg/mL dialysed into 20 mM Tris pH 7, 0.25 M NaCl, 1 mM DTT); His6-ANKS6-SAM at 3.3 mg/mL or buffer alone added at 2:1, 1:1, 1:2; 3 h on ice; details: both partners purified

Binder: B1
- binding result [1]: binds

Binder: B2
- binding result [1]: binds

Binder: B3
- Kd (ANKS6-SAM wt [2]): 270 nM
- other: Log (Kd) (ANKS3-SAM F53E; Log [NaCl] est. -0.60): 4
- other: Log (Kd) (ANKS3-SAM F53E; Log [NaCl] est. -0.70): 3.9
- other: Log (Kd) (ANKS3-SAM F53E; Log [NaCl] est. -0.82): 3.8
- other: Log (Kd) (ANKS3-SAM F53E; Log [NaCl] est. -1.0): 3.7
- Kd (ANKS3-SAM F53E (human)): 5800 nM
- Kd (ANKS6-SAM wt [3]): 249 nM

Binder: B4
- binding result (His6-tagged ANKS3-SAM): binds
